Assay results published in patent publication EP4786492A1.

Tests used:
[1] = target: human delta-like ligand 3 (DLL3) on SHP77 cells (human) (UniProt Q9NYJ7); experiment: FACS on SHP77 cells
[2] = target: DLL3 endogenously expressed on NCI-H82 cells (UniProt Q9NYJ7); experiment: FACS on NCI-H82 cells; antibody 4 nM
[3] = target: DLL3 endogenously expressed on NCI-H82 cells (UniProt Q9NYJ7); experiment: FACS on NCI-H82 cells; antibody 20 nM
[4] = target: DLL3 endogenously expressed on NCI-H82 cells (UniProt Q9NYJ7); experiment: FACS on NCI-H82 cells; antibody 0.8 nM
[5] = target: DLL3 endogenously expressed on NCI-H82 cells (UniProt Q9NYJ7); experiment: FACS on NCI-H82 cells; antibody 100 nM
[6] = target: DLL3 endogenously expressed on NCI-H82 cells (UniProt Q9NYJ7); experiment: FACS on NCI-H82 cells; antibody 0.16 nM
[7] = target: human DLL3 protein expressed on CHO-K1 recombinant cells (human DLL3 extracellular segment fused to EpCAM transmembrane and intracellular regions) (human) (UniProt Q9NYJ7); experiment: FACS, CHO-K1 hDLL3 cells, 4 nM antibody
Sequence of human DLL3 protein expressed on CHO-K1 recombinant cells (human DLL3 extracellular segment fused to EpCAM transmembrane and intracellular regions) (human) (Q9NYJ7 other isoform, or with tags, fused parts or gaps limits assumed): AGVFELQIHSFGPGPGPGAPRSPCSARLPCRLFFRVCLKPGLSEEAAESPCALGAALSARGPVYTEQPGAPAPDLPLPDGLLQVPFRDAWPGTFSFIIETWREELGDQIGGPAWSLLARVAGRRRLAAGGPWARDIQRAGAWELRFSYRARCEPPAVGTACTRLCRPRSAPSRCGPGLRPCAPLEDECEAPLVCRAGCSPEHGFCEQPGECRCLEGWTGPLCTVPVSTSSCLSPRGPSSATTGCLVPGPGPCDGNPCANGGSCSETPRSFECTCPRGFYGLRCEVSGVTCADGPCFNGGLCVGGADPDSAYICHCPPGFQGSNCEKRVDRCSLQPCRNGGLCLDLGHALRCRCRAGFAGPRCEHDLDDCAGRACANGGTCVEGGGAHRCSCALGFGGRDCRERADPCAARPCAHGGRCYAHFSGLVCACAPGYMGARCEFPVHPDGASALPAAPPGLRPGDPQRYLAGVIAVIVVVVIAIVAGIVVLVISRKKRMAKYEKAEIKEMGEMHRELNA

[8] = target: mouse DLL3 on CHO-K1-mDLL3 cells (mouse) (UniProt O88516); experiment: FACS, CHO-K1-mDLL3 cells, 4 nM antibody
Sequence of mouse DLL3 on CHO-K1-mDLL3 cells (mouse) (O88516 other isoform, or with tags, fused parts or gaps limits assumed): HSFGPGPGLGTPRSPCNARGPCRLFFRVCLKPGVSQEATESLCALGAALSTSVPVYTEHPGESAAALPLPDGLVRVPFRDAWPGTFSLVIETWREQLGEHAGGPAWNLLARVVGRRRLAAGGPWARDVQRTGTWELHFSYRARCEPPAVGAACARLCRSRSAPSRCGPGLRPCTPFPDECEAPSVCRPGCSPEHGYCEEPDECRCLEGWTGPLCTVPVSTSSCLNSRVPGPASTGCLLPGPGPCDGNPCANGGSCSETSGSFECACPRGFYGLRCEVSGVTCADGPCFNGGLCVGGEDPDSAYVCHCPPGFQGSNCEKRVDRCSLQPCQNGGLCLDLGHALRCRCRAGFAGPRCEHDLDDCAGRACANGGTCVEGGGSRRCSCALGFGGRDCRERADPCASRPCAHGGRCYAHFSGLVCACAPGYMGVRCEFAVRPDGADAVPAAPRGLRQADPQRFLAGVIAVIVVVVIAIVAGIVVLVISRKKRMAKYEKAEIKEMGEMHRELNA

[9] = target: DLL3 endogenously expressed on NCI-H82 cells (UniProt Q9NYJ7); experiment: FACS on NCI-H82 cells; antibody 0.032 nM
[10] = target: human DLL3 protein expressed on CHO-K1 recombinant cells (human DLL3 extracellular segment fused to EpCAM transmembrane and intracellular regions) (human) (UniProt Q9NYJ7); experiment: FACS, CHO-K1 hDLL3 cells, 20 nM antibody
[11] = target: mouse DLL3 on CHO-K1-mDLL3 cells (mouse) (UniProt O88516); experiment: FACS, CHO-K1-mDLL3 cells, 20 nM antibody
[12] = target: DLL3 endogenously expressed on NCI-H82 cells (UniProt Q9NYJ7); experiment: FACS on NCI-H82 cells; antibody 0.0064 nM
[13] = target: human DLL3 protein expressed on CHO-K1 recombinant cells (human DLL3 extracellular segment fused to EpCAM transmembrane and intracellular regions) (human) (UniProt Q9NYJ7); experiment: FACS, CHO-K1 hDLL3 cells, 0.8 nM antibody
[14] = target: human DLL3 protein expressed on CHO-K1 recombinant cells (human DLL3 extracellular segment fused to EpCAM transmembrane and intracellular regions) (human) (UniProt Q9NYJ7); experiment: FACS, CHO-K1 hDLL3 cells, 100 nM antibody
[15] = target: mouse DLL3 on CHO-K1-mDLL3 cells (mouse) (UniProt O88516); experiment: FACS, CHO-K1-mDLL3 cells, 0.8 nM antibody
[16] = target: mouse DLL3 on CHO-K1-mDLL3 cells (mouse) (UniProt O88516); experiment: FACS, CHO-K1-mDLL3 cells, 100 nM antibody
[17] = target: DLL3 endogenously expressed on NCI-H82 cells (UniProt Q9NYJ7); experiment: FACS on NCI-H82 cells; antibody 0.00128 nM
[18] = target: human DLL3 protein expressed on CHO-K1 recombinant cells (human DLL3 extracellular segment fused to EpCAM transmembrane and intracellular regions) (human) (UniProt Q9NYJ7); experiment: FACS, CHO-K1 hDLL3 cells, 0.16 nM antibody
[19] = target: mouse DLL3 on CHO-K1-mDLL3 cells (mouse) (UniProt O88516); experiment: FACS, CHO-K1-mDLL3 cells, 0.16 nM antibody
[20] = target: human DLL3 protein expressed on CHO-K1 recombinant cells (human DLL3 extracellular segment fused to EpCAM transmembrane and intracellular regions) (human) (UniProt Q9NYJ7); experiment: FACS, CHO-K1 hDLL3 cells, 0.032 nM antibody
[21] = target: monkey DLL3 on CHO-K1-cyno DLL3 cells (cynomolgus monkey); experiment: FACS, CHO-K1-cyno DLL3 cells, 4 nM antibody
Sequence of monkey DLL3 on CHO-K1-cyno DLL3 cells (cynomolgus monkey) (chain, as listed by the source limits assumed): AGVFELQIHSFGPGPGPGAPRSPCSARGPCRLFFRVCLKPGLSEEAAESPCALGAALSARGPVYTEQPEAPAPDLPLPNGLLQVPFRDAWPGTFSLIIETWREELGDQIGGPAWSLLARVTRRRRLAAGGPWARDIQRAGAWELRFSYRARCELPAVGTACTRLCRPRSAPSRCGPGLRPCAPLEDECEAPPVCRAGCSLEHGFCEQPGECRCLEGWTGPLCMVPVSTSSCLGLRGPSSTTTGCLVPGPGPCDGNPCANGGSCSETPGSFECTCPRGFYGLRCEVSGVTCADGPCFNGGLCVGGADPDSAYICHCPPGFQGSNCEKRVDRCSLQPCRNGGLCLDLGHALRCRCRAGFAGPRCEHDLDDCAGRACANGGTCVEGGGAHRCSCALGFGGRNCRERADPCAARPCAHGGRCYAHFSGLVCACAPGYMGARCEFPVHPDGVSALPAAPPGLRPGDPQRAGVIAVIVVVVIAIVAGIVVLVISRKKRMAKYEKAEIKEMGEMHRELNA

[22] = target: mouse DLL3 on CHO-K1-mDLL3 cells (mouse) (UniProt O88516); experiment: FACS, CHO-K1-mDLL3 cells, 0.032 nM antibody
[23] = target: human DLL3 protein expressed on CHO-K1 recombinant cells (human DLL3 extracellular segment fused to EpCAM transmembrane and intracellular regions) (human) (UniProt Q9NYJ7); experiment: FACS, CHO-K1 hDLL3 cells, 0.0064 nM antibody
[24] = target: monkey DLL3 on CHO-K1-cyno DLL3 cells (cynomolgus monkey); experiment: FACS, CHO-K1-cyno DLL3 cells, 20 nM antibody
[25] = target: mouse DLL3 on CHO-K1-mDLL3 cells (mouse) (UniProt O88516); experiment: FACS, CHO-K1-mDLL3 cells, 0.0064 nM antibody
[26] = target: human DLL3 protein expressed on CHO-K1 recombinant cells (human DLL3 extracellular segment fused to EpCAM transmembrane and intracellular regions) (human) (UniProt Q9NYJ7); experiment: FACS, CHO-K1 hDLL3 cells, 0.00128 nM antibody
[27] = target: monkey DLL3 on CHO-K1-cyno DLL3 cells (cynomolgus monkey); experiment: FACS, CHO-K1-cyno DLL3 cells, 0.8 nM antibody
[28] = target: monkey DLL3 on CHO-K1-cyno DLL3 cells (cynomolgus monkey); experiment: FACS, CHO-K1-cyno DLL3 cells, 100 nM antibody
[29] = target: mouse DLL3 on CHO-K1-mDLL3 cells (mouse) (UniProt O88516); experiment: FACS, CHO-K1-mDLL3 cells, 0.00128 nM antibody
[30] = target: monkey DLL3 on CHO-K1-cyno DLL3 cells (cynomolgus monkey); experiment: FACS, CHO-K1-cyno DLL3 cells, 0.16 nM antibody
[31] = target: monkey DLL3 on CHO-K1-cyno DLL3 cells (cynomolgus monkey); experiment: FACS, CHO-K1-cyno DLL3 cells, 0.032 nM antibody
[32] = target: monkey DLL3 on CHO-K1-cyno DLL3 cells (cynomolgus monkey); experiment: FACS, CHO-K1-cyno DLL3 cells, 0.0064 nM antibody
[33] = target: monkey DLL3 on CHO-K1-cyno DLL3 cells (cynomolgus monkey); experiment: FACS, CHO-K1-cyno DLL3 cells, 0.00128 nM antibody
[34] = target: human DLL1 protein (Acro, Cat. No. DL1-H52H8) (human) (UniProt O00548); experiment: ELISA, coated hDLL1; maximum over 0.1, 1, 10, 100 nM antibody
Sequence of human DLL1 protein (Acro, Cat. No. DL1-H52H8) (human) (O00548 18-540 limits assumed): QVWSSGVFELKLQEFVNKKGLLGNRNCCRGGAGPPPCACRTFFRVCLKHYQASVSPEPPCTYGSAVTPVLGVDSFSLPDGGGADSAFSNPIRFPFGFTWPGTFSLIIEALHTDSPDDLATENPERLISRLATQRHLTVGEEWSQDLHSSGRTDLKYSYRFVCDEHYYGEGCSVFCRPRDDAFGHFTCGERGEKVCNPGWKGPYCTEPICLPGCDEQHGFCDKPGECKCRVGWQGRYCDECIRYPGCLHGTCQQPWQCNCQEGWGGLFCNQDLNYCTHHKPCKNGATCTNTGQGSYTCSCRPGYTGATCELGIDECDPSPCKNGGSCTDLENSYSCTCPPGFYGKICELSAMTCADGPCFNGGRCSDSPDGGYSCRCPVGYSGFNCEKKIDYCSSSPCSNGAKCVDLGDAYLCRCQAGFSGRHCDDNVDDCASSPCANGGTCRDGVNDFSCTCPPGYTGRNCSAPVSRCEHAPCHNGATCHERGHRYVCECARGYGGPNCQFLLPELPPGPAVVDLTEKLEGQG

[35] = target: human DLL4 protein (Acro, Cat. No. DL4-H5227) (human) (UniProt Q9NR61); experiment: ELISA, coated hDLL4; maximum over 0.1, 1, 10, 100 nM antibody
Sequence of human DLL4 protein (Acro, Cat. No. DL4-H5227) (human) (Q9NR61 27-524 limits assumed): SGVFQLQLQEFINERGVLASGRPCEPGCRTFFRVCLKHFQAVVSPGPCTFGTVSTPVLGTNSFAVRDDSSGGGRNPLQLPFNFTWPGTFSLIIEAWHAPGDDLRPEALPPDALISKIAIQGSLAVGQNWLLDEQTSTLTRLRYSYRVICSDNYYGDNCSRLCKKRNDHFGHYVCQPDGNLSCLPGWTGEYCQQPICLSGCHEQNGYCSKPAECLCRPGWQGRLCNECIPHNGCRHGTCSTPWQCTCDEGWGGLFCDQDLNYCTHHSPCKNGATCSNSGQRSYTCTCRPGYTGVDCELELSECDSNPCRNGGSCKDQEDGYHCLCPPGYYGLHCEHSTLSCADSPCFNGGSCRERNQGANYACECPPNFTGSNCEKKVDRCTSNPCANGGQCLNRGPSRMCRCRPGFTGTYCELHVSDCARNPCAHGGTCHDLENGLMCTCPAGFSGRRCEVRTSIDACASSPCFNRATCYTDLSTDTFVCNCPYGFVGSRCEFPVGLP

[36] = target: human DLL3 protein (extracellular segment, His tag) (human) (UniProt Q9NYJ7); experiment: SPR (Biacore 8K), antibody captured on Protein A chip, DLL3 antigen in solution, 1:1 Langmuir fit
Sequence of human DLL3 protein (extracellular segment, His tag) (human) (Q9NYJ7 27-492): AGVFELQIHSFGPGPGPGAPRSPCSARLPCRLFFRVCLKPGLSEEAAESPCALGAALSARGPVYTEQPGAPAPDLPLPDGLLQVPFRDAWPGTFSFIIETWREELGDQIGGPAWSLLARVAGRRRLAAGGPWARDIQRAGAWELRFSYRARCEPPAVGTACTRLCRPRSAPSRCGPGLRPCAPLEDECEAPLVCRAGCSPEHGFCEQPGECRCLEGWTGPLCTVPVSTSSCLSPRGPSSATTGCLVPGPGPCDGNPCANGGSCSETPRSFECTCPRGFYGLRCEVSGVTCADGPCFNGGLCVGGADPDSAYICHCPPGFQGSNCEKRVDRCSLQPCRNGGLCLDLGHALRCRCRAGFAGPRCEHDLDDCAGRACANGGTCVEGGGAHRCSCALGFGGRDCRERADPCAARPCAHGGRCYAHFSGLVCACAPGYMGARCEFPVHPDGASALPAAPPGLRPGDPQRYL

Sequence of DLL3 endogenously expressed on NCI-H82 cells (Q9NYJ7 27-618): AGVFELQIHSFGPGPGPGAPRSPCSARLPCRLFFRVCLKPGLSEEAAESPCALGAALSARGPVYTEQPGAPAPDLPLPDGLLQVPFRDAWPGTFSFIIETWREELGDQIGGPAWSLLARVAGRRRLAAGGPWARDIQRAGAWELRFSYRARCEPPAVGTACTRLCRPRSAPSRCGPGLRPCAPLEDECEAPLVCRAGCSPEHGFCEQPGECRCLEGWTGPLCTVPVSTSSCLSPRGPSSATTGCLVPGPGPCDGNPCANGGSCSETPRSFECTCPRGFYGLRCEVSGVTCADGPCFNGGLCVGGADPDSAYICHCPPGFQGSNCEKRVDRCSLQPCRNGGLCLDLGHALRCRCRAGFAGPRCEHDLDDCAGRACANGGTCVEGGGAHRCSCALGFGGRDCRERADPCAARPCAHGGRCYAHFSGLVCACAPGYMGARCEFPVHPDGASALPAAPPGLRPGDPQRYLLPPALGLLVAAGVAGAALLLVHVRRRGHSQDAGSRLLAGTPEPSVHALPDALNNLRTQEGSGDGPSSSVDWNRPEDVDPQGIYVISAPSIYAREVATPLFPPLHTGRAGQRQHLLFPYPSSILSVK
Sequence of human delta-like ligand 3 (DLL3) on SHP77 cells (human) (Q9NYJ7 27-618, stated change not applied): as the sequence (Q9NYJ7 27-618) above

B1: Hab014VL2VH1-hFc (scFv, part only; not given: scFv linker and human IgG1 Fc, V domains shown, not shown: another chain or arm of the molecule; a dimerising Fc or GST; small tags and cut ends)
VL: DIQMTQSPSSLSASVGDRVTITCKASEDIYNRLAWYQQKPGKVPKLLISGATSLETGVPSRFSGSGSGKDFTLTISSLQPEDVATYYCQQYWSLPWTFGGGTKVEIK
VH: EVQLVQSGAEVKKPGASVKVSCKASGYTFTDYYMNWVRQAPGQRLEWMGDINPNHGDTGYNQKFTGRVTITVDKSASTAYMELSSLRSEDTAVYYCARNFFYYGTTYGWYFDVWGQGTTVTVSS
[1]
  MFI at 0.00128 nM: 91 MFI
  MFI at 0.0064 nM: 99 MFI
  MFI at 0.032 nM: 120 MFI
  MFI at 0.16 nM: 207 MFI
  MFI at 0.8 nM: 407 MFI
  MFI at 4 nM: 610 MFI
  MFI at 20 nM: 796 MFI
  MFI at 100 nM: 1110 MFI
[2]
  MFI: 624
[3]
  MFI: 754
[4]
  MFI: 554
[5]
  MFI: 1110
[6]
  MFI: 428
[7]
  MFI: 15400 MFI
[8]
  MFI: 308 MFI
[9]
  MFI: 217
[10]
  MFI: 16100 MFI
[11]
  MFI: 355 MFI
[12]
  MFI: 142
[13]
  MFI: 8420 MFI
[14]
  MFI: 16400 MFI
[15]
  MFI: 272 MFI
[16]
  MFI: 374 MFI
[17]
  MFI: 113
[18]
  MFI: 2380 MFI
[19]
  MFI: 204 MFI
[20]
  MFI: 705 MFI
[21]
  MFI: 25300 MFI
[22]
  MFI: 152 MFI
[23]
  MFI: 322 MFI
[24]
  MFI: 33000 MFI
[25]
  MFI: 118 MFI
[26]
  MFI: 231 MFI
[27]
  MFI: 10100 MFI
[28]
  MFI: 33000 MFI
[29]
  MFI: 109 MFI
[30]
  MFI: 1670 MFI
[31]
  MFI: 661 MFI
[32]
  MFI: 287 MFI
[33]
  MFI: 200 MFI
[34]
  Emax of OD450 nm binding value: 0.17 OD450 nm
[35]
  Emax of OD450 nm binding value: 0.25 OD450 nm
[36]
  Kd: 0.111 nM
  koff: 0.000135 s⁻¹
  kon: 1.21e+06 M⁻¹ s⁻¹

B2: Hab015VL5VH6a-hFc (scFv, part only; not given: scFv linker and human IgG1 Fc, V domains shown, not shown: another chain or arm of the molecule; a dimerising Fc or GST; small tags and cut ends)
VL: NIQMTQSPSSLSASVGDRVTITCKASENVGTYVSWYQQKPGKSPKLLIYGASNRYTGVPSRFSGSGSGTDFTLTISSLQPEDFATYYCGQFYSFPSTFGGGTKVEIK
VH: EVQLVESGGGLVKPGGSLRLSCAASGITFSNFWMNWVRQAPEKGLEWVGQIRLKSDDYATHYAESVKGRFTISREDSKNTVYLQMNSLKTEDTAVYYCTTGYYFDYWGQGTTVTVSS
[1]
  MFI at 0.00128 nM: 101 MFI
  MFI at 0.0064 nM: 117 MFI
  MFI at 0.032 nM: 171 MFI
  MFI at 0.16 nM: 362 MFI
  MFI at 0.8 nM: 663 MFI
  MFI at 4 nM: 726 MFI
  MFI at 20 nM: 770 MFI
  MFI at 100 nM: 1090 MFI
[2]
  MFI: 827
[3]
  MFI: 937
[4]
  MFI: 755
[5]
  MFI: 1220
[6]
  MFI: 430
[7]
  MFI: 9720 MFI
[8]
  MFI: 1230 MFI
[9]
  MFI: 216
[10]
  MFI: 10900 MFI
[11]
  MFI: 1410 MFI
[12]
  MFI: 127
[13]
  MFI: 3960 MFI
[14]
  MFI: 11300 MFI
[15]
  MFI: 870 MFI
[16]
  MFI: 1530 MFI
[17]
  MFI: 117
[18]
  MFI: 883 MFI
[19]
  MFI: 390 MFI
[20]
  MFI: 294 MFI
[21]
  MFI: 6080 MFI
[22]
  MFI: 185 MFI
[23]
  MFI: 153 MFI
[24]
  MFI: 6530 MFI
[25]
  MFI: 131 MFI
[26]
  MFI: 122 MFI
[27]
  MFI: 4080 MFI
[28]
  MFI: 6850 MFI
[29]
  MFI: 121 MFI
[30]
  MFI: 1150 MFI
[31]
  MFI: 371 MFI
[32]
  MFI: 169 MFI
[33]
  MFI: 125 MFI
[34]
  Emax of OD450 nm binding value: 0.71 OD450 nm
[35]
  Emax of OD450 nm binding value: 0.82 OD450 nm
